Laboratory results: US6905817B1, “Ret-independent signaling pathway for GDNF” (Licestia Ltd., priority 1998, dated 2005)
“Also recorded” adds a separate entry of the source.

What was measured:
[1] = tested on: GFRα1-associated Src kinases; test: In vitro kinase assay on anti-GFRα1 immunoprecipitate from Ret^−/− DRG neurons; format: cell-based, mouse; conditions: GDNF 100 ng/ml, 5 min; Triton X-100 insoluble fraction
Procedure: DRG neurons (5×10^5), SHEP neuroblastoma cells (10^7), Neuro2A neuroblastoma cells stably transfected with GFRα1 (10^7) or NIH3T3 cells (NIH3T3/pBpGFRα1) stably transfected with GFRα1 (10^7) were incubated in serum-free culture medium without (control) or with GDNF (GDNF-treated) for 0.5-15 min at 37° C. The cells were washed twice with cold PBS/vanadate and lysed in TX-100 lysis buffer (50 mM Tris-HCl, pH 7.5, 150 mM NaCl, 5 mM EDTA, 1% Triton X-100, 1 mM sodium orthovanadate, 1 mM phenylmethylsulfonyl fluoride (PMSF) and protease inhibitors (Boehringer) on ice for 1 hour. The postnuclear lysates were pre-cleared by incubation with 50 μl of 50% Protein G-Sepharose for goat polyclonal antibodies or Protein A-Sepharose CL4B (Pharmacia) for rabbit polyclonal antibodies for 1 hour at +4° C. After removal of the beads, the supernatants were incubated with 0.4-0.5 μg of anti-GFRα1 or anti-Yes polyclonal antibodies (Santa Cruz Biotechnology) overnight at +4° C. followed by incubation with Protein G or A-Sepharose for 2 hours. The immunocomplexes were washed twice in TX-100 lysis buffer without EDTA and twice in kinase buffer (25 mM Hepes, pH 7.4, 5 mM MgCl2, 5 mM MnCl2, 1 mM sodium orthovanadate). […] Quantification of the optical density of the blots was performed using the TINA program.

JNK = JNK phosphorylation assay in SHEP cells; format: cell-based, human; conditions: GDNF 100 ng/ml
Procedure: (§1) To assess GDNF-dependent MAPK and CREB phosphorylation in all studied cell lines, the semiconfluent cell monolayers were starved for 3 hours in serum-free medium, and then GDNF was applied for the indicated time. For the analysis of MAPK and CREB activation in Ret^−/− animals the DRG neurons were dissected from E18 mice and maintained in NGF-containing medium for 2 hours. After this time the neurons were deprived of NGF by placing them in NGF-free medium in the presence of anti-NGF antibodies. After 2 hr without NGF, the neurons were stimulated with GDNF. In the experiments involving Src-kinase inhibition, a Src-family kinase inhibitor PP2 was added at the indicated concentrations to the cell monolayers 5 min before GDNF application. In some experiments 1 μg/ml of soluble GFRα1 lacking a GPI anchor (GFRα1/Fc chimeric protein; R&D systems) was added 5 min prior to the GDNF application and was kept in the solution during the GDNF treatment, After stimulation, the cells were briefly washed with PBS/sodium vanadate and lysed in the buffer containing TBS, 2 mM EDTA, 1% NP-40, 1% Triton X-100, 1 mM PMSF, 1 mM Na3VO4 and a Complete, protease inhibitors cocktail (Boehringer Mannheim). Total cell protein for each extract was measured by MicroBSA (Pierce) and an equivalent amount of protein was resolved electrophoretically on 10% polyacrylamide gels. […]

Ret^−/− DRG neurons [2] = test: Survival of Ret^−/− DRG neurons in culture; format: cell-based, mouse; conditions: unpublished observations and Taraviras et al., 1999
p42/p44 MAPK = test: MAPK phosphorylation in NIH 3T3 fibroblasts stably transfected with GFRα1; format: cell-based; conditions: GDNF 100 ng/ml
Procedure: as §1

CREB = CREB Ser-133 phosphorylation assay in SHEP cells; format: cell-based, human; conditions: GDNF treatment
Procedure: as §1

Ret^−/− DRG neurons [3] = test: GDNF-evoked [Ca^2+]i changes, confocal microscopy, Ret^−/− DRG neurons; format: cell-based, mouse
Procedure: DRG from embryonic day 18 (E18) mice were treated with trypsin (Worthington), non-neuronal cells removed by preplating, and about 95% pure neurons cultured on poly-ornithine-laminin-coated glass coverslips in Ham's F14 medium (Imperial Laboratories) with serum substitute containing NGF, BDNF and NT-3 (all from PeproTech, 2 ng/ml if each) for at least 1 day before measurement. Neurotrophins were extensively washed out before GDNF application. GDNF was from PeproTech and donated by Cephalon, Inc. Ret-deficient mice (Schuchardt et al., 1994) were identified from heterozygote matings by the absence of kidneys and PCR-based genotyping. GFRα2-deficient mice were obtained from homozygote matings (Rossi et al., 1999).
[Ca^2+]i was measured using a Bio-Rad MRC-1024 confocal microscope equipped with an argon-krypton laser. The cells were loaded with 10 μM Calcium Green-1AM (Molecular Probes), a membrane permeable Ca^2+ dye, by 30 min incubation in serum free cell-culture media at 37 ° C. and 5 % CO2. After loading, the neurons were kept at room temperature in Dulbecco's PBS solution contained 20 mM HEPES (pH=7.4) for at least 20 min prior to the experiments. All compounds were applied to the bath by a peristaltic pump. 6 kD Heparin (Sigma) and Alexa 568 nm fluorescent dye (Molecular Probes) were loaded into the cells using Molecular Probes' pinocytotic influx loading reagent basically according to the manufacturer instructions. […] Cell injection was performed using Eppendorf microinjection system. The average intensity of fluorescence in the predefined ROI (Region Of Interest) was measured on-line using TimeCourse software from BioRad. The calibration of fluorescence traces was performed in vitro using Fmax and Fmin values obtained with the calcium calibration buffer kit (Molecular Probes). Because the calibration solutions may not reflect the intracellular environment, the experimental data are presented as delta [Ca^2+]i calculated using Kd=190 nM for Calcium Green-1.

B1: Glial cell line—derived neurotrophic factor (protein, UniProt P39905 78-211, looked up)
Glial cell line-derived …: SPDKQMAVLPRRERNRQAAAANPENSRGKGRRGQRGKNRGCVLTAIHLNVTDLGLGYETKEELIFRYCSGSCDAAETTYDKILKNLSRNRRLVSDKVGQACCRPIAFDDDLSFLDDNLVYHILRKHSAKRCGCI
notes: TGF-β family-related neurotrophic protein; from PeproTech and donated by Cephalon, Inc
- phosphoprotein in in vitro kinase assay of anti-GFRα1 precipitate [1]: revealed a major phosphoprotein of approximately 60 kD
- JNK activation (phosphorylation) (JNK): did not evoke JNK activation; also recorded: did not affect the phosphorylation of JNK
- survival of Ret^−/− DRG neurons in culture (Ret^−/− DRG neurons [2]): not been shown to stimulate survival
- phosphorylation of MAPK (p42/p44 MAPK): reproducibly increased phosphorylation of MAPK
- phosphorylation of CREB in Ser-133 site (CREB): potently induced phosphorylation of CREB
- Ret^−/− DRG neurons with long-lasting [Ca^2+]i elevation (Ret^−/− DRG neurons [3]; 10-100 ng/ml GDNF): 60-70%
- change in [Ca^2+]i (Ret^−/− DRG neurons [3]; 10-100 ng/ml GDNF): long-lasting [Ca^2+]i elevation
- fast [Ca^2+]i rise (Ret^−/− DRG neurons [3]; GDNF): never observed a GDNF-dependent fast [Ca^2+]i rise
- change in [Ca^2+]i (calcium entry) (Ret^−/− DRG neurons [3]; GDNF 100 ng/ml in nominally Ca^2+ free external solution (about 20 μM)): evoked a massive [Ca^2+]i overshoot and substantially slower decay kinetics; also recorded: resulted in a profound increase in [Ca^2+]i
